Data reported in patent publication WO2018065552A1 (dated 2018).

T1: human CD39 endogenously expressed on Ramos human lymphoma cells (human, UniProt P49961 1-510)
T1 construct: also called NTPDase1; ENTPD1
T1 sequence: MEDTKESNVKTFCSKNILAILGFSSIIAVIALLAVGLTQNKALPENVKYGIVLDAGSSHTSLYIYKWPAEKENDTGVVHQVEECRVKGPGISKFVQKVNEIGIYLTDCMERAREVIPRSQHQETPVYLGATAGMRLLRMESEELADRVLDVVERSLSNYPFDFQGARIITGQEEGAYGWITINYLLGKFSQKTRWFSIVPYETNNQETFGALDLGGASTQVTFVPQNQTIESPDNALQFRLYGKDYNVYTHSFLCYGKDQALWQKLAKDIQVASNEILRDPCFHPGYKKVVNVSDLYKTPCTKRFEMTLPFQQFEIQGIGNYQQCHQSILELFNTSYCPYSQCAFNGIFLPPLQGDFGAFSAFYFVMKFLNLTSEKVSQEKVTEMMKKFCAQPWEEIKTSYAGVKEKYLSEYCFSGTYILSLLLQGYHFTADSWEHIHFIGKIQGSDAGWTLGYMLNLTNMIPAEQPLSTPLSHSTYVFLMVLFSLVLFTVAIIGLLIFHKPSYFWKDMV


Biological target: T1, human CD39 endogenously expressed on …
Experiment: flow cytometry, antibody titration on Ramos cells endogenously expressing CD39

Row | binding result | Binder
1 | binds | HH3/L0 (antibody, human IgG1, V domains shown, Human IgG1 N297Q, huCk; also called mAb38) VH: QVQLVQSGSELKKPGASVKVSCKASGYTFTHYGMNWVRQAPGQGLKWMGWINTYTGEPTYAQDFKGRFVFSLDTSVSTAYLQISSLKAEDTAVYYCARRRYEGNSVFYYFDYWGQGTTVTVSS VL: DIQMTQSPSSLSASVGDRVTITCRASENIYSYFSWYQQKPGKAPKLLIYTAKTLAEGVPSRFSGSGSGTDFTLTISSLQPEDFATYYCQHHYVTPYTFGGGTKVEIK
2 | no binding | HH4/L0 (antibody, human IgG1, V domains shown, Human IgG1 N297Q, huCk; HH4 has a glutamic acid substitution at Kabat residue 53; its row is lacking in this copy; If the inference holds, this is mAb39) VH: QVQLVQSGSELKKPGASVKVSCKASGYTFTHYGMNWVRQAPGQGLKWMGWINTETGEPTYADDFKGRFVFSLDTSVSTAYLQISSLKAEDTAVYYCARRRYEGNYVFYYFDYWGQGTTVTVSS VL: DIQMTQSPSSLSASVGDRVTITCRASENIYSYFSWYQQKPGKAPKLLIYTAKTLAEGVPSRFSGSGSGTDFTLTISSLQPEDFATYYCQHHYVTPYTFGGGTKVEIK
